Test system: IGIP transcripts
Experiment: RT-PCR of IGIP transcripts in stimulated monocyte derived dendritic cells
Type: cell-based
Settings: human monocyte derived dendritic cells
Description: PBMCs were labeled with anti-CD14 microbeads at 4° C. for 45 minutes, washed three times in sorting buffer. Pure CD14+blood monocytes were then separated by AutoMACS, and cultured at 37° C. for 6 days in cRPMI with 1400 U/ml Leukine (rhGM-CSF) and 10 ng/ml rhIL-4. Non-adherent cells were collected at day six, and purity of dendritic cells was determined by flow cytometry.
Enriched dendritic cell cultures were stimulated with rhCD40L, Pam3CSK, Poly I:C, LPS, CpG DNA, or PMA and Ionomycin for 0, 12, 18, 24, 48, and 72 hours. Total RNA was extracted from harvested cells and treated with DNase to remove any potential contaminating DNA. IGIP was amplified by RT-PCR.
Human dendritic cells (DC) were derived from peripheral blood monocytes by culturing in GM-CSF and IL-4 for 6-7 days. IGIP transcripts were detected by RT-PCR in total RNA from approximately 10^6 monocyte derived DC (mDC) following either Toll-like receptor (TLR) binding or CD40 ligation.

B1: CD40L: rhCD40L used to stimulate dendritic cell cultures (protein, UniProt P29965 113-261, looked up)
CD40 ligand, soluble form: MQKGDQNPQIAAHVISEASSKTTSVLQWAEKGYYTMSNNLVTLENGKQLTVKRQGLYYIYAQVTFCSNREASSQAPFIASLCLKSPGRFERILLRAANTHSSAKPCGQQSIHLGGVFELQPGASVFVNVTDPSQVSHGTGFTSFGLLKL
  loss of IGIP transcripts post stimulation: no longer detectable after 48 hours
  time after stimulation at which IGIP was detectable: approximately 12 hours
  time of peak IGIP expression: 24 h

— US7638284B2, “Immunoglobulin A inducing protein and uses therefor” (The Curators of the University of Missouri, priority 2000, dated 2009)
